One block for each molecule: values may come before it.
Legend:
[1] = target: Cleft Lip and Palate Transmembrane protein 1 (CLPTM1), human, native, in cells (human) (UniProt O96005); assay: flow cytometry on permeabilised O-876 cells expressing native CLPTM1, 10x dilution series
[2] = target: Cleft Lip and Palate Transmembrane protein 1 (CLPTM1), human, native, in cells (human) (UniProt O96005); assay: flow cytometry on permeabilised O-876 cells expressing native CLPTM1
[3] = target: T1, Cleft Lip and Palate Transmembrane protein 1 (CLPTM1), human, native, in cells (human, UniProt O96005 2-669); assay: as above
T1 construct: Native CLPTM1 as expressed by cells; also called CLPTM1 receptor
T1 sequence: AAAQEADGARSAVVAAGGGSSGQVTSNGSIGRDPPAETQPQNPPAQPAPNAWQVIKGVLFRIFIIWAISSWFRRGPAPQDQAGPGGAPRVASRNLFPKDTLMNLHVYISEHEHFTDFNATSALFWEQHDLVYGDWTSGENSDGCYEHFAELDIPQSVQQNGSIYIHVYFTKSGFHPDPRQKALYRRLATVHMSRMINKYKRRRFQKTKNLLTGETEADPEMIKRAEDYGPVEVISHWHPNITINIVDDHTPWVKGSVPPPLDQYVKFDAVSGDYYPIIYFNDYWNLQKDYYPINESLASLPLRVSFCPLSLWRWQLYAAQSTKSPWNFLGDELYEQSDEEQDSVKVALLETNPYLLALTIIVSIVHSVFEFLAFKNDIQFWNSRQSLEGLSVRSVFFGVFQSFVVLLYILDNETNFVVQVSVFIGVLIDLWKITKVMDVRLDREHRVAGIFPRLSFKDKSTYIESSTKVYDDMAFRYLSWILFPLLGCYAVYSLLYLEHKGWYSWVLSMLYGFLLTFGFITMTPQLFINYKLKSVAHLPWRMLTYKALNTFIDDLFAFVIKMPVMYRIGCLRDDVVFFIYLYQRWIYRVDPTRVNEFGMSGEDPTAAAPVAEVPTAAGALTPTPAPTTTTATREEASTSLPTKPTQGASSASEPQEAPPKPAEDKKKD
Method: (§1) Affinity of antibodies was determined by finding the half-maximal binding on the native target in a flow cytometry assay. Since the native target is found inside most cells and rarely on the cell surface, the assay was performed using plasma membrane-permeabilized cells, an intra-cellular staining protocol. Using the native target is more applicable when evaluating and comparing various antibodies as it is the true antigen to be bound in a therapeutic setting in vivo. 0-876 cells were permeabilized with BD-fix and permeabilization buffer (554722 BD-Biosciences). Antibody at various concentrations was incubated with cells for 30 minutes at +4 C, then washed twice with wash buffer (BD-Biosciences 554723). Secondary antibodies a-mouse IgG-PE (Molecular Probes) was used for mouse monoclonal antibodies according to manufacturer's instructions and a-rabbit-IgG-PE (Molecular Probes) for rabbit monoclonal antibody (Abcam ERP8800). Three washes followed and fluorescence intensity in cells was quantified by FACS Cantoll in PBS with cells in 2% FCS buffer.
(§2) The assay was performed on 0-876 cancer cell line.

[4] = target: T1, Cleft Lip and Palate Transmembrane …; assay: flow cytometry on permeabilised O-876 cells expressing native CLPTM1; Kd defined by half maximal binding
Method: as §1, §2

NDYWNLQKDYYPINESLASLG = target: T2, NDYWNLQKDYYPINESLASLG (biotinylated; C-terminal glycine not from CLPTM1); assay: ELISA: biotinylated CLPTM1 peptide on streptavidin plate, GDF15 at 100 ng/ml, detected with goat anti-GDF15 and anti-goat-HRP
T2 construct: also called G15
T2 peptide: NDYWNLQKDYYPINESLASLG
Method: (§3) Biotinylated synthetic peptide fragments from CLPTM1 (JPT peptides, Germany) were immobilized in a streptavidin 96 well plate (#15500 Pierce) at 1 μM in PBS overnight at +4° C. Plate was washed 4 times in 300 μl PBS with 0.05% Tween-20 (wash buffer). The plate was blocked with PBS 1% BSA and 0.05% Tween-20 (blocking buffer) for 1.5 hours at room temperature then washed 4 times in wash buffer. GDF15 ligand (Abcam) was added in blocking buffer at 100 ng/ml and incubated at room temperature for 2 hours. The plate was then washed 8 times in 300 μl wash buffer with 2×NaCl. A GDF15 antibody as added at 1 μg/ml (R&D systems goat polyclonal) and incubated in block buffer for 1 hour at room temperature followed by washing with 4×300 μl wash buffer. HAF017 anti-goat-HRP antibody was added and incubated for 1 hour in blocking buffer followed by a wash. TMB substrate was added and stopped after 15 minutes with H2SO4. OD 450-620 was measured in an ELISA reader.
(§4) Polypeptides having sequences set forth in SEQ ID NOs:10-33 were assessed for binding to GDF15 (corresponding to the polypeptides indicated from left to right in FIG. 2 and shown in Table 1). These proteins were synthesised with a C-terminal glycine residue that is not present in the corresponding sequences from CLPTM1.

SGQVTSNGSIGRDPPAETQPG = target: T3, SGQVTSNGSIGRDPPAETQPG (biotinylated; C-terminal glycine not from CLPTM1); assay: as above
T3 construct: also called G2
T3 peptide: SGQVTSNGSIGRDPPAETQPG
Method: as §3, §4

LWRWQLYAAQSTKSPWNFLGG = target: T4, LWRWQLYAAQSTKSPWNFLGG (biotinylated; C-terminal glycine not from CLPTM1); assay: as above
T4 construct: also called G19
T4 peptide: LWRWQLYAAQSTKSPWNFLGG
Method: as §3, §4

AAAQEADGARSAVVAAGGGSG = target: T5, AAAQEADGARSAVVAAGGGSG (biotinylated; C-terminal glycine not from CLPTM1); assay: as above
T5 construct: also called G1
T5 peptide: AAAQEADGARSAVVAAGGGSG
Method: as §3, §4

RIFIIWAISSWFRRGPAPQDG = target: T6, RIFIIWAISSWFRRGPAPQDG (biotinylated; C-terminal glycine not from CLPTM1); assay: as above
T6 construct: also called G4
T6 peptide: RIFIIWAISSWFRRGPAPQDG
Method: as §3, §4

MIKRAEDYGPVEVISHWHPNG = target: T7, MIKRAEDYGPVEVISHWHPNG (biotinylated; C-terminal glycine not from CLPTM1); assay: as above
T7 construct: also called G12
T7 peptide: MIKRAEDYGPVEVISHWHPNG
Method: as §3, §4

[5] = target: T8, CLPTM1 peptide G14 (residues 262-281 with C-terminal glycine) (human, biotinylated (position not given)); assay: as above
T8 construct: Biotinylated synthetic peptide on a streptavidin plate; The C-terminal glycine is not in CLPTM1
T8 peptide: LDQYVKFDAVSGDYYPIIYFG
Method: as §3, §4

[6] = target: T9, CLPTM1 peptide G10 (residues 182-201 with C-terminal glycine) (human, biotinylated (position not given)); assay: as above
T9 construct: Biotinylated synthetic peptide on a streptavidin plate; The C-terminal glycine is not in CLPTM1
T9 peptide: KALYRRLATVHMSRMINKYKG
Method: as §3, §4

[7] = target: T10, CLPTM1 peptide G20 (residues 292-311 with C-terminal glycine) (human, biotinylated (position not given)); assay: as above
T10 construct: Biotinylated synthetic peptide on a streptavidin plate; The C-terminal glycine is not in CLPTM1
T10 peptide: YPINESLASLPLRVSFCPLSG
Method: as §3, §4

[8] = target: T11, CLPTM1 peptide G9 (residues 162-181 with C-terminal glycine) (human, biotinylated (position not given)); assay: as above
T11 construct: Biotinylated synthetic peptide on a streptavidin plate; The C-terminal glycine is not in CLPTM1
T11 peptide: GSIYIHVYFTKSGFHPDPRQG
Method: as §3, §4

[9] = target: T12, CLPTM1 peptide G21 (residues 273-292 with C-terminal glycine) (human, biotinylated (position not given)); assay: as above
T12 construct: Biotinylated synthetic peptide on a streptavidin plate; The C-terminal glycine is not in CLPTM1
T12 peptide: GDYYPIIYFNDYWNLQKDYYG
Method: as §3, §4

SALFWEQHDLVYGDWTSGENG = target: T13, SALFWEQHDLVYGDWTSGENG (biotinylated; C-terminal glycine not from CLPTM1); assay: as above
T13 construct: also called G7
T13 peptide: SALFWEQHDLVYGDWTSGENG
Method: as §3, §4

RRRFQKTKNLLTGETEADPEG = target: T14, RRRFQKTKNLLTGETEADPEG (biotinylated; C-terminal glycine not from CLPTM1); assay: as above
T14 construct: also called G11
T14 peptide: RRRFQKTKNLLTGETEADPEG
Method: as §3, §4

QNPPAQPAPNAWQVIKGVLFG = target: T15, QNPPAQPAPNAWQVIKGVLFG (biotinylated; C-terminal glycine not from CLPTM1); assay: as above
T15 construct: also called G3
T15 peptide: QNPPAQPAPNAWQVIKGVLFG
Method: as §3, §4

WQVIKGVLFRIFIIWAISSWG = target: T16, WQVIKGVLFRIFIIWAISSWG (biotinylated; C-terminal glycine not from CLPTM1); assay: as above
T16 construct: also called G22
T16 peptide: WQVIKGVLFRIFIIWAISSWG
Method: as §3, §4

YEQSDEEQDSVKVALLETNPG = target: T17, YEQSDEEQDSVKVALLETNPG (biotinylated; C-terminal glycine not from CLPTM1); assay: as above
T17 construct: also called G18
T17 peptide: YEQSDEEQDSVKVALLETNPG
Method: as §3, §4

QAGPGGAPRVASRNLFPKDTG = target: T18, QAGPGGAPRVASRNLFPKDTG (biotinylated; C-terminal glycine not from CLPTM1); assay: as above
T18 construct: also called G5
T18 peptide: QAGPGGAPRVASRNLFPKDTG
Method: as §3, §4

SDGCYEHFAELDIPQSVQQNG = target: T19, SDGCYEHFAELDIPQSVQQNG (biotinylated; C-terminal glycine not from CLPTM1); assay: as above
T19 construct: also called G8
T19 peptide: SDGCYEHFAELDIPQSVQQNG
Method: as §3, §4

[10] = target: T20, …; assay: as above
T20 sequence (peptide, biotinylated; C-terminal glycine not from CLPTM1): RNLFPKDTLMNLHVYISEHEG

[11] = target: T21, …; assay: as above; remark: listed apart in the source
T21 sequence (peptide, biotinylated; C-terminal glycine not from CLPTM1): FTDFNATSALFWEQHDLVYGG

[12] = target: T22, …; assay: as above; remark: listed apart in the source
T22 sequence (peptide, biotinylated; C-terminal glycine not from CLPTM1): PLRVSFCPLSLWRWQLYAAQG

[13] = target: T23, …; assay: as above; remark: listed apart in the source
T23 sequence (peptide, biotinylated; C-terminal glycine not from CLPTM1): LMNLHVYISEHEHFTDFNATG

[14] = target: T24, …; assay: as above; remark: listed apart in the source
T24 sequence (peptide, biotinylated; C-terminal glycine not from CLPTM1): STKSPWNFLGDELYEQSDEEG

Molecule: Santa Cruz mouse anti-human CLPTM1 monoclonal antibody (G-7) (sc-374619)
percent of maximum binding at 1 µg/ml [1]: < 50%

B2: Growth and Differentiation Factor 15 (GDF15) (ligand, UniProt Q99988 197-308, looked up)
chain: ARNGDHCPLGPGRCCRLHTVRASLEDLGWADWVLSPREVQVTMCIGACPSQFRAANMHAQIKTSLHRLKPDTVPAPCCVPASYNPMVLIQKTDTGVSLQTYDDLLAKDCHCI
notes: Bought protein (Abcam); also called MIC-1; GDF15 ligand (Abcam)
OD ELISA 450nm - 620nm (NDYWNLQKDYYPINESLASLG): 0.038 OD
OD ELISA 450nm - 620nm (SGQVTSNGSIGRDPPAETQPG): 0.009 OD
OD ELISA 450nm - 620nm (LWRWQLYAAQSTKSPWNFLGG): 0.033 OD
OD ELISA 450nm - 620nm (AAAQEADGARSAVVAAGGGSG): 0.022 OD
OD ELISA 450nm - 620nm (RIFIIWAISSWFRRGPAPQDG): 0.026 OD
OD ELISA 450nm - 620nm (MIKRAEDYGPVEVISHWHPNG): 0.028 OD
OD ELISA 450nm - 620nm [5]: 0.14 OD
OD ELISA 450nm - 620nm [6]: 0.197 OD
OD ELISA 450nm - 620nm [7]: 0.22 OD
OD ELISA 450nm - 620nm [8]: 0.149 OD
OD ELISA 450nm - 620nm [9]: 0.507 OD
OD ELISA 450nm - 620nm (SALFWEQHDLVYGDWTSGENG): 0.034 OD
OD ELISA 450nm - 620nm (RRRFQKTKNLLTGETEADPEG): 0.021 OD
OD ELISA 450nm - 620nm (QNPPAQPAPNAWQVIKGVLFG): 0.042 OD
OD ELISA 450nm - 620nm (WQVIKGVLFRIFIIWAISSWG): 0.023 OD
OD ELISA 450nm - 620nm (YEQSDEEQDSVKVALLETNPG): 0.022 OD
OD ELISA 450nm - 620nm (QAGPGGAPRVASRNLFPKDTG): 0.034 OD
OD ELISA 450nm - 620nm (SDGCYEHFAELDIPQSVQQNG): 0.024 OD
OD ELISA 450nm - 620nm [10]: 0.055 OD
OD ELISA 450nm - 620nm [11]: 0.061 OD
OD ELISA 450nm - 620nm [12]: 0.063 OD
OD ELISA 450nm - 620nm [13]: 0.058 OD
OD ELISA 450nm - 620nm [14]: 0.053 OD

The remaining lines, values ahead:

percent of maximal binding at 1 µg/mL [2]: > 50%
percent of maximum binding at 0.1 µg/ml [1]: > 50%
Molecule: AbCam anti-CLPTM1 rabbit monoclonal antibody EPR8800 (RabMab)

EC50 [3]: < 1 µg/mL
Kd [4]: < 1 nM
B1: Mouse monoclonal anti-CLPTM1 antibody 7G12 (antibody, V domains shown)
VH: QVQLQQSGTELVRPGTSVKVSCKASGYAFTNYLIEWVKQRPGQGLEWIGVINPGSGGTRYNEKFKGKATLTADKSSTTAHMQLSSLTSDDSAVYCARWGGNYSGYAMDYWGQGTSVTVSS
VL: QIVLTQSPVIMSASPGEKVTITCSASSSVSYMHWFQQKPGTSPKLWIYSTSNLASGVPARFSGSGSGTSYSLTISRMEAEDAATYYCQQRSSYPPTFGAGTKL
notes: Mouse IgG1 heavy chain, kappa light chain; also called mAb 7G12; 7G12hyb

— patent US20190256592A1 (GENAGON THERAPEUTICS, published 2019)
